Experiment: yeast display, Sf9 membrane polyspecificity reagent, FACS + sequencing; frameworks hold sequencing errors
Method in brief: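 A synthetic nanobody library was expressed on Saccharomyces cerevisiae BJ5465 by galactose induction for 36–48 hours. The library was stained for 1 hour at 4 °C with 10% biotinylated, detergent-solubilized Sf9 membrane reagent and enriched with streptavidin microbeads before FACS. Low and high (top ~1%) gates were set on anti-HA fluorescence for expression and streptavidin fluorescence for reagent binding, and each polyreactivity label reflects the gate of origin.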

Sequence	polyreactivity (PSR sort gate)
QVHLVESGGGIVQAGGSLRLSCAASGIIFHWYAMGWYRQAPGKERELVAAITQSGGSTSYADSVKGRFTISRDNAKNTVYLQMNSLKPEDTAVYNCSKDYAYTLWENYYAFNYWGQGTQVTVSS	low polyreactivity
QVHLVESGGGKVQAGGRLRLSCAASGSTFFRYAMGWYRQAPGKERELVAAISWSGGTTYYADSVKGRFPISRDIAKNTVYLQMNSLKPEDTAVYYCNAVRQGHILDYWGQGTQVTVSS	low polyreactivity
QVHLVESGGGLDQAGGSLRLICAASGSIFDYYAMGWYRQAPGKERELVAAIDNPDSTNYADSVKGRFTLSRDNAKNTVYLQMNSLKPEDTAVYYCAASSRTVWYPGVGYYYWGQGTQVTVSS	low polyreactivity
QVHLVESGGGLDQAGGSLRLSCAASASIFELYAMGWYRQAPGKERELVAVISTGGSTYYADSVKGRFTISRDNAKNTVYLQMNSLKPEDTAVYYCAKGGYVPKLEYWGQGTQVTVSS	high polyreactivity
QVHLVESGGGLDQAGGSLRLSSAASGTTYRYAMGCYRQAPGKAMELVATISSRGGTTSYADSVKGRFTISRDNAKNTVYLQMNSLKPEDTAVYSCAAGQFPKYFSDDADMDYWGQGPQVTVSS	low polyreactivity
QVHLVESGGGLFQAGGSLRLSCAPSGSITGYYAMGWYRQAPGKERDLVASIRNTGARTYYADSVKGRFTISRDNAKKTVYIQKNSLKAEDTAVYYCAADVKRDRVRGGDDWGQGTQVTVSS	low polyreactivity
QVHLVESGGGLLQAGGSLRLSFAASGTFYYYAMGWNRQAPGKERELVATISWDSASTYYADSVKGRFTISRDNAKNTVYLQMNSLKPEDTGVYYCAAGGSSSWAFNYWGQGTQVTVSS	low polyreactivity
QVHLVESGGGLVKAGGSLRLSCAASGLTFYVYTMGWYRQAPGKERELVAVISSGDSTYYADSVKGRFTISRDNAKNTVYLQMNSLKPEDTAVYYCAAGTHYLIVRYGLYDYWGQGTQVYVSS	low polyreactivity
QVHLVESGGGLVKAGGSLRLSCAASGSIFTWYAMGWYRQEPGKERELVAAITWRGGSTYYADSVKGRFTISRDNAKNTVYLQMNSLKPEDTAVYYCAAAGRSGKSLLQYGYWGQGTQVTVSS	high polyreactivity
QVHLVESGGGLVKAGGSLRLSCAAYGRIFSYNDMGWYRQSPGKDRELVAAISSSGGRTYYADSVKGSFTISRDNAKNTVYLQMNSMKPEDTALYYCNVLGYSYWGQGTQVTVSS	high polyreactivity
QVHLVESGGGLVQAAGSLRLSCAASGRTFNPNAIGWYRQAPGKERELVAVINVGGRTNYADSVKGRFTISRDNAKNTVYLQMNSLKPEDSAVYYCAAISSRNFDYWGQGTQVTVSS	high polyreactivity
QVHLVESGGGLVQAGASLRLSCAASGSIFVGYAMGWYRQAPGKERELVASISSGDDTYADSVKGRFTISRDNAKNTVYLQMNSLKPEDTAVYYCAKDYISVDWAYDYWGQGTQVTVSS	low polyreactivity
QVHLVESGGGLVQAGCSLRLSCAASGFTFYDYAMGWYRQAPGKERELVAGISRGDSTYYADSVKGRFTISRDNAKNTVYLQKNSLKPEDTSVYYCAADARSYDALDYSDLLYDYWGHGTQVTVSS	low polyreactivity
QVHLVESGGGLVQAGDSLRLSCASSGIIFYDYAMGWYRPAPGKERELVAAITSSGGSTYYADSVKGRFTISRDNAKNTVYLQMNSLIPEDTAVYYCAAATRGSGRRYDYLGQGTQVTVSS	high polyreactivity
QVHLVESGGGLVQAGGCLRLSCAASGSIFSVHAMGWYRQAPVKERELVAAISGDGDSTYYADSVKGRFTISRDNAKNTVYLQMNSLKPEDTAVYYCAVEPNVYFSVFVLFPSDYWGQGSQVTVSS	low polyreactivity
QVHLVESGGGLVQAGGGLRLSSAASGFIFSPNAMGWYRQAPGKEREYVAAISYSGTSTSYADSVKGRFTISRDNAKNTVYLQMNSLKPEDTAVYYCAAGRSNSYSPRRRVTYGYNYWGQGTQVTVSS	high polyreactivity
QVHLVESGGGLVQAGGRLRLSCAASGYIFSVYAMGLYRQAPGKERELVAAISSGGSTYYADSLKGRLTISRDNAKYTVYLQMNSLKPEDTAVYYCAAESVYVYWYYVDYDYWGQGTQVTVSS	high polyreactivity
QVHLVESGGGLVQAGGSHRLSCAASGLNFPPNAMGWYRQAPAKESELVASITRSGGSTYYADSVKGRFTISRDNAKNTVYLQMNSLKRDDTAVYYCAAYLDTSRYGVLYDYWGQGTQVTVSS	low polyreactivity
QVHLVESGGGLVQAGGSIRLSCAASGFIFGSYAMGWYRPAPGKERELVAVISASGGGTYYADSVKGRFTISRDNAKYTVYLQMNSLKPEDTAVYYCAAKGVRGFAGYGYWGQGTQVTVSS	high polyreactivity
QVHLVESGGGLVQAGGSLPLSCAASGIIFGGYDMGWYRPAPGIERELVAAISWSGGSTYYADSVKGRFTISRDNAKNTVYLPMNSLKPEDTAVYYCAAAYYAPTRVYYYWGQGTQVTVSS	low polyreactivity
QVHLVESGGGLVQAGGSLRISCAASGLTFQRYAMGWYRQAPGKERELVASITGNGGSTYYADSVKGRFTISRDNAQNSVYLQMNSLKPEDTAVFYCNARRYVRTSQQPLYDYWGQGTQVTVSS	high polyreactivity
QVHLVESGGGLVQAGGSLRLICAASGRILYLYAMGWYRQAPGKERELVARISQRDGSTYYADSVKGRFTISRDNAKNTVYLQMNSLKPEDTAVYYCNADFYLGSYGYSYDYWGQGTQVTVSS	low polyreactivity

Sequence	polyreactivity (PSR sort gate)
QVHLVESGGGLVQAGGSLRLICAASGSIFRRYAMGWYRQAPGKERELVASISSRGTRTYYADSVTWRFTISRDNAKNTVYLQMNSLKPEDTAVYYCAASYYTPYDYLGQGTQVTVSS	high polyreactivity
QVHLVESGGGLVQAGGSLRLSCAASGDTFVKYAMGWYRQAPGKERELVAAISSGGRTYYADSVKGRFTISRDNAKNTVYLQMNSLKPEDTAVYFCNAVRPYRLASYDYWGQGTQVTVSS	high polyreactivity
QVHLVESGGGLVQAGGSLRLSCAASGFIFDFNTMGWYRQAPGKETEFVAAISGSGGRTYYADSVKGRFTISRDNAKNTVYLQMNSLKPEDTAVYYCAAYKRYYYGYDYWGQGTQVTVSS	high polyreactivity
QVHLVESGGGLVQAGGSLRLSCAASGFIFSVYAMGWYRQAPGKERELVAAINRSGSNTYYADSVKGRFTISRDNAKNTVYLQMNSLKPEDTAVYYCATLQGFWYYPPYIKTVQYGYWGQGTQVTVSS	high polyreactivity
QVHLVESGGGLVQAGGSLRLSCAASGFIFWENGMGWYRQAPGKERELVAAISSGGGRTYYADSVKGLFTISRDNAKNTVYLQMNSLKPEDTAFYYCNRARYYREFDYWGQGTQVTVSS	high polyreactivity
QVHLVESGGGLVQAGGSLRLSCAASGFTFDYNAMGWYRQAPGKEMELVAAISGSGGSTYYADSVKGRFTISRDNAKNTVYLQMNSLKPEDSSVYYCNAGRVTRRDTFDYWGQGTQVTVSS	high polyreactivity
QVHLVESGGGLVQAGGSLRLSCAASGFTFFYYAMGWYRPAPGKERELVAAINSGDNTNYADSVKGRFTISRDNAKNTVYLLMNSLIPEDTAVYYCAAQDYARGVVPGRRAMGYWGQGTQVSVSS	high polyreactivity
QVHLVESGGGLVQAGGSLRLSCAASGFTFGVYAMGWYRQAPGKERELVAAISRRGTSTYYADSVKGRFTISRDTAKYTVYLQMNSLKPEDTAVYYCNARRYQVTVDHWGQGTQVTVSS	high polyreactivity
QVHLVESGGGLVQAGGSLRLSCAASGFTFRGYAMGWYRQAPGTERELVAAVSGSGGRTHYADSVKGRFTISRDNAKNTVYLQMNSLKPEDTAVYYCNARGRASATGRRGRPDPFGYWGQGTQVTVSS	high polyreactivity
QVHLVESGGGLVQAGGSLRLSCAASGFTFRRNAMGWYRQAPGKERELVAAITRSGGVTYYADSVKGRFTISRDNAKNTVYLQMNSMKPEDTAVYYCATQARLYGGYDRYAGSYDYWGQGTQVTVSS	high polyreactivity
QVHLVESGGGLVQAGGSLRLSCAASGFTFSSNAMGWYRQAPGKERELVADISFNSTSTYYADSVKGRFTISRDNAKNTVYLQMNSLKPEDTAVYYCAADVPRVQSEPEYDYWGQGTQVTVSS	low polyreactivity
QVHLVESGGGLVQAGGSLRLSCAASGFTFSYYAMGWYRQAPGKERELVAVISDRGGITYYADSVKGRFTISRDNAKNTVYLQMISLKPEDTAVYYCAAQNPRYNYRYYYWGQGTQVTVSS	low polyreactivity
QVHLVESGGGLVQAGGSLRLSCAASGFTITYNAMGWYRQAPGKEREFVAAITNNGSTYYADSVKGRFTISRDNAKNSVYLQMKSLKPEDTAVYYCAVDRGYYDEYNYWGQGTHVTVSS	low polyreactivity
QVHLVESGGGLVQAGGSLRLSCAASGGTINRYAMGWSRQAPGKERELVAAITYSGGRTYYADSVKGRFTISRDNAKNTVYLQMNSLKPEDTAVYYCAARVGKIISDSWGQGTQVTVSS	high polyreactivity
QVHLVESGGGLVQAGGSLRLSCAASGIIFGRNVMGWYRQAPGKERELVAAISSSGGRTYYADSVKGRFTISRDNAKNTVYLQMNSLNPEVTAVYYCAADEVTKKNSFPRIMDYWGQGTQVTVSS	high polyreactivity
QVHLVESGGGLVQAGGSLRLSCAASGIIFHYYAMGWYRQAPGKERALVATMTSGGSTYYADSVKGRFTISRDNAKNTVYLQMNSLKPEDSAVYYCAATYGGSVFEYDYWGQGTQVTVSS	low polyreactivity
QVHLVESGGGLVQAGGSLRLSCAASGIIFYWNPMGWYRQAPGKERELVAAISWSGGSTYYADSVKGRFTISRDNAKNTVYLQMNSLKPEDTAVYYCNAVTTYYPQFRPGAIPGVGYGFWGQGTQVTVSS	low polyreactivity
QVHLVESGGGLVQAGGSLRLSCAASGILRLNAMGWYRQAPGKEREFVATISRSGGITYYADSVKGRFTISRDNAKNTVYLQMNSLKPEDTAVYYCAKGGYSLYGYWGQGTQVTVSS	high polyreactivity
QVHLVESGGGLVQAGGSLRLSCAASGITFAWYAMGWYRQAPGKERELVAAISDRGGSTYYADSVKGRFTMSRDNAKNTVDLQMNSLKPEETAVYYCAADYRYYWRSGASSRMDYWGQGTQVTVSS	high polyreactivity
QVHLVESGGGLVQAGGSLRLSCAASGITFNIYTLGWYRQAPGKEREFVATISSSGGGTYYADSVKGRFTISRDNSKNTVYFQMNSLKPEDTAVYYCARYGIGADGYDYWGQGTQVTVSS	low polyreactivity
QVHLVESGGGLVQAGGSLRLSCAASGITFWGNAMGWYRHAPGKEREFVARINWSGGRTYYAESVKGRFTISRDNAKITVYLQMKSLKPEDTAVYYCAATSLIYGYRTYVYWGQGTQVTVSS	high polyreactivity
